The values below come from the nanobody polyreactivity screen of Harvey et al. (2022).

The nature of this data set: yeast display, Sf9 membrane polyspecificity reagent, FACS + sequencing; frameworks hold sequencing errors. Put shortly: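 Genes from sorted yeast were amplified by colony PCR, read by MiSeq 2 × 250 sequencing and filtered on CDR length. These cells carried a synthetic nanobody library in Saccharomyces cerevisiae BJ5465 and were sorted by FACS into low and high (top ~1%) gates on anti-HA and streptavidin fluorescence. Polyreactivity is labelled according to the gate of origin.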
On to “QVQLVESGGGLVQAGGSLRLSCAASGTIFTNAMGCYRQEPGKERQLVAAISSSGGSTYYADSVKGRFTISRDNAKNTVYLQMNSLKPEDTAVYYCAADGEVSLWTGYDYDYWGKGTQVTVSS”, for which the “polyreactivity (PSR sort gate)” value is on record as “low polyreactivity”.
As to “QVQLVESGGGLVQAGGSLRLSCAASGTIFYINAMGWYRQAPGKERELVAAIRSGGSTNYADSVKGRFTISRDNAKNTVYLQMNSLKPEDTAVYYCNARSRSYVPYYYWGQGTQVTVSS”, the “polyreactivity (PSR sort gate)” value was “high polyreactivity”.
“QVQLVESGGGLVQAGGSLRLSCAASGTILRPYAMGWYRQAPGKERELVAAISTSGGRTFYADSVKGRFTISRDNAKNTVYLQMYSLNPEDTAVYYCAAVGYRFGSNYWGQGTQVTVSS”: the “polyreactivity (PSR sort gate)” value is “high polyreactivity”.
The value for “QVQLVESGGGLVQAGGSLRLSCAASGTMGWYRQAPGKERELVAAISQSGGSTYYADSVKGRFTISRDNAKNTVYLQMNSLKPEDTAVYYCAVDPRYGHPRRDYWGQGTQVTVSS” was “low polyreactivity”; that for “QVQLVESGGGLVQAGGSLRLSCAASGTTFAGNAMGWYRQAPGKEREFVAAITISGGSTYYADSVKGRFTISRDNAKNTVYLQMNRLKPEDTAVYYCAADYAYYVSLPSRFVYAGYDYWGQGTQVTVSS” was “low polyreactivity”.
Take “QVQLVESGGGLVQAGGSLRLSCAASGTTFEVNAMGWYRQAPGKERELVATITRSGGSTYYADSVKGRFTISRDNAKNTVYLQMNSLKPEDTAVYYCNALWELKWGQGTQVTVSS”: the “polyreactivity (PSR sort gate)” value is on record as “low polyreactivity”.
“QVQLVESGGGLVQAGGSLRLSCAASGTTFGRNAMGWYRQAPGKERELVAAINSGGGTYYADSVKGRFTISRDNAKNTVYFQMNSLKPEDTAVYYCAAARRYGNYDYWGQGTQVTVSS”: the “polyreactivity (PSR sort gate)” value was “low polyreactivity”.
Turning to “QVQLVESGGGLVQAGGSLRLSCAASGTTFGRNTMGWYRQAPGKERELVAAISKSGGSTRYADSVKGRFTISRDNAKNTVYLQMNRLKAEDTAFYYCAARVYSLGYGGDYWGQGTQVTVSS”, the “polyreactivity (PSR sort gate)” value is “high polyreactivity”.
Regarding “QVQLVESGGGLVQAGGSLRLSCAASGTTFSPNAMGWYRQAPGKERELVAAIRGSGSRTYADSVKGRFTISRDNAKNSVYLQMNSLKPEDTAVYYCAAEWIYDTDYWYYSYYYWGQGTQVTVSS”, the “polyreactivity (PSR sort gate)” value was “low polyreactivity”.
Then “QVQLVESGGGLVQAGGSLRLSCAASGTTIGVNAMGWYRQAPGKERDLVAAISRRGASTYYADSVKGRFTISLDNAKNTVYLQMNSLKPEETAVYYCAKAQVHDYIVSMDRYGYWGQGTQVTVSS”, with “low polyreactivity”; and “QVQLVESGGGLVQAGGSLRLSCAASGTTNDYYDMGWYRQAPGKERELDAAISSGGDSTYYADSVMGRFTISRDNAKNTVYLQMNSLKPEDTAVYYCAAAVYYGQSVWYYYWGQGTEVTVSS”, with “high polyreactivity”; and “QVQLVESGGGLVQAGGSLRLSCAASGVNAMGWYRQAPGKEREFVAAITSIGGSTYYADSVKGRFTISRDNAKNTVYLQMNSLKPEDTAVYYCNTDRGPVKVSPLYESWGQGTQVTVSS”, with “low polyreactivity”.
On to “QVQLVESGGGLVQAGGSLRLSCAASGVTFHGYTMGWYRQAPGKERELVAAITSGGGTNYADSVKGRFTISRDNAKNTVYLQMNSLKPEDTAVYYCAAGFHKRVTPEILYDYWGQGTQVTVSS”, for which the “polyreactivity (PSR sort gate)” value is reported as “low polyreactivity”.
With “QVQLVESGGGLVQAGGSLRLSCAASGYIFCKYAMGWYRQARGKERELVAGITRGGTTYYADSVKGRFTISRDNAKNTVYLQMNSLKPEVTAVYYCARDLLGVSSSRYNSWGQGTQVTVSS”, the “polyreactivity (PSR sort gate)” value is listed as “high polyreactivity”.
The value for “QVQLVESGGGLVQAGGSLRLSCAASGYIFDGNAMGWYRKAPGKERELVAPITWTGGSTYYADSVKGRFTISRDNAKNTVYLQMNSLKPEDTAVYYCAKPYDPGPYHSSYRATDDYWGQGTQVTVSS” was “low polyreactivity”.
Turning to “QVQLVESGGGLVQAGGSLRLSCAASGYIFDIYAMGWYRQAPGKERELVAVITRSGGGTYYADSVKGRFTISRDNAKNSVYLQMNSLKPEDTAVYYCAAESYVYGGSDYDYWGQGTQVTVSS”, the “polyreactivity (PSR sort gate)” value was “low polyreactivity”.
With “QVQLVESGGGLVQAGGSLRLSCAASGYIFDRYAMGWYRQAPGKERELVAAISGRGGSTYYADSVKGRFTISRDNAKNTVSLQMNSLKPEDTAVYYCARDVYVRNGQRARYDSWGQGTQVTVSS”, the “polyreactivity (PSR sort gate)” value is recorded as “high polyreactivity”.
In the case of “QVQLVESGGGLVQAGGSLRLSCAASGYIFFFYAMGWYRQAPGKERELVASITYRGGSTYYADSVKGRFTISRDNAKNTVYLQMNSLKPEDTAVYYCNVDGGGPLGPQGFPFDYWGQGTQVTVSS”, the “polyreactivity (PSR sort gate)” value is recorded as “low polyreactivity”.
The value for “QVQLVESGGGLVQAGGSLRLSCAASGYIFFRNAMGWSRQAPGKEREFVADIRFSGGNTYYADSVKGRFTISRDNAKNTVYFQKISLKPEDTAVYYCSADLVYTYAYDYWGQGTQVTVSS” was “low polyreactivity”; that for “QVQLVESGGGLVQAGGSLRLSCAASGYIFFTNAMGWYRQAPGKERELVAAISTIDGSTYYADSVKGRFTISRDNAKNTVYLQMNSLKPEDTAVYYCATDTPFISSLAYDYWGQGTQVTVSS” was “low polyreactivity”; that for “QVQLVESGGGLVQAGGSLRLSCAASGYIFGFYAKGWYRQAPGKERELVARITYSGTSTYYADSVKGRFTISRDNAKNTVYLQMNSLKPEDTAVYYCAKRNKRSAWDSDEYDYWGQGTQVTVSS” was “low polyreactivity”.
Consider “QVQLVESGGGLVQAGGSLRLSCAASGYIFGGYAMGWYRQAPGKERELVAGISIGVGSTYYADSVKGRFTISRDNAKNTVYLQMNSLKPEDTAVYYCNRDSVGYDYWGQGTQVTVSS”, for which the “polyreactivity (PSR sort gate)” value is on record as “low polyreactivity”.
Consider “QVQLVESGGGLVQAGGSLRLSCAASGYIFGRNAMGWYRQAPGKERELVAVSSSRGSRTYYADSVKGRFTISRDNAKNTVYLQMNSLKPEDTAVYYCAVRGVVNFDYWGQGTQVTVSS”, for which the “polyreactivity (PSR sort gate)” value is on record as “high polyreactivity”.
Take “QVQLVESGGGLVQAGGSLRLSCAASGYIFGVYTMGWYRQAPGKERELVAGISSGSSTYYADSVKGRFTISRDNAKNTVYLQMNSLKPEDTAVYYCAARERSRTYTSRKQVDYGYGYWGQGTQVTVSS”: the “polyreactivity (PSR sort gate)” value is “low polyreactivity”.
“QVQLVESGGGLVQAGGSLRLSCAASGYIFHLYGMGWYRQAPGKERELVARISYRGGSTYYADSVKGRFTISRDNAKNTVYLQMNSLKTEDTAVYYCAKDYYKHYYWGQGTQVTVSS”: the “polyreactivity (PSR sort gate)” value is given as “high polyreactivity”.
Consider “QVQLVESGGGLVQAGGSLRLSCAASGYIFHSYMGSYRQAPGKETELVAAITSGGSTYYADSVKGRFTISRDNAKNTFFLKMNSLKPEDTAVYYCGAGWWYYLHMDYWGQGTQVTVSS”, for which the “polyreactivity (PSR sort gate)” value is “high polyreactivity”.
In the case of “QVQLVESGGGLVQAGGSLRLSCAASGYIFIDYAMGWYRQAPGKERELVAAIRWSDSTYYADSVKGRFTISRDNAKNTVYLEMNSLKPEDTAVYYCAAEDSIRWVRRSRWYYYWGQGTQVTVSS”, the “polyreactivity (PSR sort gate)” value is “low polyreactivity”.
As to “QVQLVESGGGLVQAGGSLRLSCAASGYIFLANAMGWYRQAPGKERELVARIDTRGDSTYYADSVKGRFTISRDTAKNTVYLQMNSLKPEDTAVYYCAADQQTWWQYSLINEYDYWGQGTQLTVSS”, the “polyreactivity (PSR sort gate)” value is given as “low polyreactivity”.
On to “QVQLVESGGGLVQAGGSLRLSCAASGYIFLRNAKGWSRQAPGKERELVAAIRRTGGSTYYADSVKGRFTISRDIAKNTVYLDMNSLKPEDTAVYYCAKRSYTGYEYLGQGTQVTVSS”, for which the “polyreactivity (PSR sort gate)” value is recorded as “low polyreactivity”.
Take “QVQLVESGGGLVQAGGSLRLSCAASGYIFLRNAMGWYRQAPGKERELVAAIRRTGGSTYYADSVKGRFTISRDNAKNTVYLQMNSLKPEDTAVYYCAKRSYTGYEYWGQGTQVTVSS”: the “polyreactivity (PSR sort gate)” value is “low polyreactivity”.
As for “QVQLVESGGGLVQAGGSLRLSCAASGYIFNYAMGWYRQAPGKERQLVAAISRRGGSTYYADSVKGRFTISRDNAKNTVYLQMISLKPEDTAVYYCADRLPGYYGIGDYWGQGSQVTVSS”, the “polyreactivity (PSR sort gate)” value is on record as “high polyreactivity”.
The value for “QVQLVESGGGLVQAGGSLRLSCAASGYIFNYNAMGWYRQAPGKERELVAVIRVSVGSTYYADSVKGRFTISRDNAKNTVYLQMNSLKPEDTAVYYCAADRGARGDYWGQGTQVTVSS” was “high polyreactivity”.
Then “QVQLVESGGGLVQAGGSLRLSCAASGYIFPAYGMGWYIQAPGKERELVAAISWSTGSTYYADSVKGRFTISRDNAKNTVYLQMNSLKPEDTAVYYCDAGRPRRVPDHWYIYYYWGQATQVTVSS”, with “low polyreactivity”; and “QVQLVESGGGLVQAGGSLRLSCAASGYIFPPYAMGWYRQAPGKERELVATITGIGGSTYYADSVKGRFTISRDNAKNTVYLQMNSLKPEDTAVYYCAARRDGYGTHYDYWGQGTQVTVSS”, with “low polyreactivity”.
Turning to “QVQLVESGGGLVQAGGSLRLSCAASGYIFPYYTMGWYRQAPGKERELVAAITIGGSTYYADSVKGRFTISRDNAKNTVYFQMNSLKPVDTAVYYCAARSRYYDTRFDYWGQGTQVTVSS”, the “polyreactivity (PSR sort gate)” value was “low polyreactivity”.
In the case of “QVQLVESGGGLVQAGGSLRLSCAASGYIFQYNAMGWYRQAPGKERELVAAISRGGRTNYADSVKGRFTISRDNAKNTVYLQMNSLNPEDTAVYFCAAKRPWGYYPWSTQTGDYWGQGTQVTVSS”, the “polyreactivity (PSR sort gate)” value was “high polyreactivity”.
Take “QVQLVESGGGLVQAGGSLRLSCAASGYIFRFYTMGWYRQAPGKERELVASITRSGGSTYYADSVKGRFTISRDNAKNTVYLQMNSLKPEDTAVYYCNARKTVGMDYWGQGTQVTVSS”: the “polyreactivity (PSR sort gate)” value is “low polyreactivity”.
On to “QVQLVESGGGLVQAGGSLRLSCAASGYIFRSYAMGWYRQAPGKERELVATISWIGGGTSYADSVKGRFTISRDNAKNTVYLHMNSLIPVDTAVYYCAAGPWAYGRRHAYYSRSFDYWGQGTQVTVSS”, for which the “polyreactivity (PSR sort gate)” value is given as “high polyreactivity”.
Turning to “QVQLVESGGGLVQAGGSLRLSCAASGYIFRSYAMGWYRQAPGKERELVATISWIGGGTSYADSVKGRFTISRDNAKNTVYLQMNSLKPEDTAVYYCAAGPWAYGRRHAYYSRSFDYWGQGTQVTVSS”, the “polyreactivity (PSR sort gate)” value was “high polyreactivity”.
On to “QVQLVESGGGLVQAGGSLRLSCAASGYIFRVYAMGWYTPAPGKERELVAAISGSGGRTYYADSVKGRFKFSLDIAKNTVYLKMNSLKREDTAVYYCAATLYYYVGVRYDYWGQGSQVTVSS”, for which the “polyreactivity (PSR sort gate)” value is reported as “high polyreactivity”.
Regarding “QVQLVESGGGLVQAGGSLRLSCAASGYIFRYNEMGWYRQAPGKERALVAAIRATGGSTYYADSVKGRFTISRDNAKNTVYLQMNSLKPEDTAVYYCNAGGQGRTYRYYYWGQGTQVTVSS”, the “polyreactivity (PSR sort gate)” value is reported as “high polyreactivity”.
